B1: psNb 2-38 (VHH)
VHH: QVQLVESGGGLVQAGGSLRLSCAAAARFSTSAMGWFRQAPGKEREFVAAISWSNTNTHYADTVKGRFTISADTAKETVDLQMNSLKPEDTAVYYCVQGGWGIRQPIIVDYWGKGTQVTVSS
B2: psNb 1-8 (VHH)
VHH: QVQLVESGGGLVQTGGSLRLSCAASGRTFSNYVMGWFRQAPGKEREFVSSIEWNSENTFYANSVKGRFTISRDNAKNTVYLQMNSLKAEDTAVYYCAADRGSSYYYTRASEYTYWGQGTQVTVSS
B3: psNb 2-57 (VHH)
VHH: QVQLVESGGGLVQAGGSLRLSCAVSGRTISTFGMGWFRQAPGKEREFVATITRDEDMLLYADSVKGRFTISRDTAKNMVFLQMNSLKIEDTALYYCAVRRDSSWGYSRQSTEYDYWGQGTQVTVSS
B4: psNb 2-34 (VHH)
VHH: HVQLVESGGGLVQAGGSLRLSCAASGRTFSRYAAGWFRQAPGKEREFVAVIEWDGDSAYYADPVKGRFTISRDNAKNTVYLQMNRLKPEDTAVYICAVGGNHYSRSKYYNLDEYDDWGQGTQVTVSS
B5: psNb 1-22 (VHH)
VHH: HVQLVESGGGLVQPGGSLRLSCAASGRSFNSYLMGWFRQAPGKEREFVAWISGSPHDIIRYRDSVKDRFTISRDNAKNTVYLQMNSLKPVDTAVYYCAVGSLRVGSFSPDYWGQGTQVTVSS
B6: psNb 2-67 (VHH)
VHH: EVQLVESGGGLVQTGGSLRLSCALSGYTFSIFPTAWFRQAPGKEREFVAGIRWNGSTRDYTEYADFVKGRFTISRDNAKNMVYLQMISLKPEDTALYYCAASDGVIDGTNANAYRYWGQGTQVTVSS
B7: psNb 2-65 (VHH)
VHH: HVQLVESGGGLVQAGGSLRLSCAASGTISTLNAMGWYRQAPGKQRELLASISNLGTTYHADSVAGRFTISRGSAKNTVNLQMNSLKPDDTAVYYCNTRVLEGGTQIRDYWGQGTQVTVSS
B8: psNb 1-23 (VHH)
VHH: QVQLVESGGGLVQAGGSLRLSCAASGRTDSISDMGWFRQAPGKEREFVAVVGWSGGGTDYAHSVKGRFTISRDNAKNTVYLQMNSLKPEDTAVYYCAVGSLRVGSFSVEYWGQGTQVTVSS
B9: psNb 2-45 (VHH)
VHH: QVQLVESGGGLVQAGGSLRLSCTASGYDFSILAIAWYRQAPGKERELVAAISRVGSTDYADSVKGRFTISRDNTKNTVSLQMDSLKPEDTAVYYCNAGIPMTTVLSGLGFWGQGTQVTVSS

Target: SARS-CoV-2 spike HexaPro (S) (SARS-CoV-2 (Wuhan-Hu-1), UniProt P0DTC2, stabilised)
Test: cryo-EM structure

Binder	binding result
B1	binds
B2	binds
B3	binds
B4	binds
B5	binds
B6	binds
B7	binds
B8	binds
B9	binds

Source: publication PMC9174178 (Cell Reports, 2022)
